The text below walks through data of publication PMC11840924, “Identifying Allosteric Hotspots in Mycobacterium tuberculosis cAMP Receptor Protein through Structural Homology” (Biochemistry, 2025).

In series [1] the target is T1, cAMP receptor protein from Mycobacterium tuberculosis (CRPMTB), wildtype (Mycobacterium tuberculosis), P9WMH3.
T1 chain: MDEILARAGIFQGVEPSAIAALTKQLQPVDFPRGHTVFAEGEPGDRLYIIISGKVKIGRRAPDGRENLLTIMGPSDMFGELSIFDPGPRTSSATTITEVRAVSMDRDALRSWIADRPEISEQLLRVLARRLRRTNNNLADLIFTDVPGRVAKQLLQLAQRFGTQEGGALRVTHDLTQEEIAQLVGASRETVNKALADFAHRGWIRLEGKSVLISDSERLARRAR
In words: SEC. Conditions: remark: other sources report otherwise.

Series [2] deals with T1, cAMP receptor protein from …. Briefly: fluorescence polarisation; fluorescence anisotropy, stoichiometric titration; CRPMTB titrated into 200 nM fluorescein-labelled 32-bp serC promoter DNA; 75 mM KCl, 50 mM HEPES, 1 mM EDTA, pH 7.6; 0 mM cAMP. As to conditions: remark: other sources report otherwise. On the technique in general: Polarisation of emitted light reports the rotation of a fluorescent probe.

The target is the same in series [3]. Briefly: fluorescence polarisation; fluorescence anisotropy; CRPMTB titrated into 3 nM fluorescein-labelled 32-bp serC promoter DNA (full site); 75 mM KCl, 50 mM HEPES, 1 mM EDTA, pH 7.6; 1 mM cAMP; second transition read as high-order oligomers on DNA; apparent. Conditions: remark: other sources report otherwise.
For series [4] the target is unchanged. In words: fluorescence polarisation; fluorescence anisotropy; CRPMTB titrated into 3 nM fluorescein-labelled 32-bp serC promoter DNA (full site); 75 mM KCl, 50 mM HEPES, 1 mM EDTA, pH 7.6; 0 mM cAMP; second transition ([CRP] > 100 nM) read as free CRPMTB joining the specific CRPMTB-DNA complex (high-order oligomers on DNA); apparent. As to conditions: remark: other sources report otherwise.

The series “SEC” deals with the molecule itself. In words: SEC. (In general: SEC sorts molecules by how far they enter the pores of the column.)
The target in series [5] is T2, CRPMTB A61H (Mycobacterium tuberculosis, UniProt P9WMH3 1-224, A61H).
T2 sequence: T1 chain with A61H
In words: fluorescence anisotropy; no cAMP; 75 mM KCl, 50 mM HEPES, 1 mM EDTA, pH 7.6; […]; temperature not stated. Conditions: protein: recombinant; tags: His-tag (pET-3a); chain copies: 2; label: fluorescein; blunt.

The target of series [6] is T3, CRPMTB T70F (Mycobacterium tuberculosis, UniProt P9WMH3 1-224, T70F).
T3 sequence: T1 chain with T70F
The series is described as above. As to conditions: protein: recombinant; tags: His-tag (pET-3a); chain copies: 2; label: fluorescein; blunt.

The target of series [7] is T4, CRPMTB D63H (Mycobacterium tuberculosis, UniProt P9WMH3 1-224, D63H).
T4 sequence: T1 chain with D63H
The series is described as above. As to conditions: protein: recombinant; tags: His-tag (pET-3a); chain copies: 2; label: fluorescein; blunt.

For series [8], the target named is T5, CRPMTB A61I (Mycobacterium tuberculosis, UniProt P9WMH3 1-224, A61I).
T5 sequence: T1 chain with A61I
The series is described as above. As to conditions: protein: recombinant; tags: His-tag (pET-3a); chain copies: 2; label: fluorescein; blunt.

Series [9] has as its target T2, CRPMTB A61H. In words: fluorescence anisotropy; 1 mM cAMP; 75 mM KCl, 50 mM HEPES, 1 mM EDTA, pH 7.6; […]; temperature not stated. Conditions: protein: recombinant; tags: His-tag (pET-3a); chain copies: 2; label: fluorescein; blunt.
Series [10] deals with T3, CRPMTB T70F. The series is described as above. As to conditions: protein: recombinant; tags: His-tag (pET-3a); chain copies: 2; label: fluorescein; blunt.
Series [11] addresses T4, CRPMTB D63H. The series is described as above. Conditions: protein: recombinant; tags: His-tag (pET-3a); chain copies: 2; label: fluorescein; blunt.
The target in series [12] is T5, CRPMTB A61I. Described as above. Conditions: protein: recombinant; tags: His-tag (pET-3a); chain copies: 2; label: fluorescein; blunt.

Numbering of substitutions follows the chain as printed. Numbers in names are those of the source.

B1: cAMP receptor protein from Mycobacterium tuberculosis (CRPMTB), wildtype, P9WMH3 (natural protein)
chain: T1 chain
Take B1: the figures for the stoichiometry N in series [1] and in series [2] were 2 and more than 4, respectively. Besides, the apparent K (1/[CRP]) at the boundary of oligomer formation on DNA stood at 6e+06 M⁻¹ in series [3] and 1.5e+07 M⁻¹ in series [4].

B2: CRPMTB T70F (natural protein)
chain: T1 chain with T70F
For the molecule B2, the stoichiometry N (usually a count of units in the complex or per binding partner) in the series “SEC” is 2.

B3: CRPMTB A61I (natural protein)
chain: T1 chain with A61I
Turning to B3, the “stoichiometry N” value in the series “SEC” worked out at 2.

B4: CRPMTB A61H (natural protein)
chain: T1 chain with A61H
With B4, in the series “SEC”, the “stoichiometry N” value was 2.

B5: CRPMTB D63H (natural protein)
chain: T1 chain with D63H
B5: in “SEC”, the “stoichiometry N” value worked out at 2.

B6: serC32 full-site promoter (dsDNA)
DNA 1: GCGCGTAGTGTGAACAAGCTCACATGCAAGCC
DNA 2: GGCTTGCATGTGAGCTTGTTCACACTACGCGC
On to B6, for which the Ka in the series with CRPMTB A61H [5] was 4.03 ± 0.08 10^8 M-1; with CRPMTB T70F [6], 4.42 ± 0.04 10^8 M-1; in the series with CRPMTB D63H [7], 4.53 ± 0.04 10^8 M-1; with CRPMTB A61I [8] it was 2.71 ± 0.02 10^8 M-1; with CRPMTB A61H [9], 2.95 ± 0.05 10^8 M-1; with CRPMTB T70F [10], 2.75 ± 0.02 10^8 M-1. For the same molecule, the figures for the Ka in the series with CRPMTB D63H [11] and with CRPMTB A61I [12] were 4.66 ± 0.06 10^8 M-1 and 3.57 ± 0.03 10^8 M-1, respectively.
